Experimental data from patent US20160264649A1.

Columns and labels:
Test in all cases: cell-based or functional assay
[1] = molecular target: HIV-1 MGRM-D-021 Env (HIV-1)
[2] = molecular target: HIV-1 MGRM-C-014 Env on pseudovirus (HIV-1)
[3] = molecular target: HIV-1 MGRM-Chronic-B-001 Env on pseudovirus (HIV-1)
[4] = molecular target: HIV-1 MGRM-G-015 Env (HIV-1)
[5] = molecular target: HIV-1 MGRM-F1-004 Env (HIV-1)
[6] = molecular target: HIV-1 MGRM-D-011 Env (HIV-1)
[7] = molecular target: HIV-1 MGRM-G-027 Env (HIV-1)
[8] = molecular target: HIV-1 MGRM-C-012 Env on pseudovirus (HIV-1)
[9] = molecular target: HIV-1 APV_17 Env on pseudovirus (HIV-1)
[10] = molecular target: HIV-1 MGRM-Chronic-B-012 Env on pseudovirus (HIV-1)
[11] = molecular target: HIV-1 98CN006 Env on pseudovirus (HIV-1)
[12] = molecular target: HIV-1 MGRM-Chronic-B-010 Env on pseudovirus (HIV-1)
[13] = molecular target: HIV-1 MGRM-AE-001 Env (HIV-1)
[14] = molecular target: HIV-1 93IN905 Env (HIV-1)
[15] = molecular target: HIV-1 MGRM-AG-009 Env (HIV-1)
[16] = molecular target: HIV-1 LAVI_C22 Env on pseudovirus (HIV-1)
[17] = molecular target: HIV-1 MGRM-Chronic-B-011 Env on pseudovirus (HIV-1)
[18] = molecular target: HIV-1 98IN022 Env on pseudovirus (HIV-1)
[19] = molecular target: HIV-1 MGRM-AE-007 Env (HIV-1)
[20] = molecular target: HIV-1 MGRM-G-011 Env (HIV-1)
[21] = molecular target: HIV-1 MGRM-AG-008 Env (HIV-1)
[22] = molecular target: HIV-1 MGRM-F1-018 Env (HIV-1)
[23] = molecular target: HIV-1 98CN009 Env on pseudovirus (HIV-1)
[24] = molecular target: HIV-1 MGRM-G-006 Env (HIV-1)
[25] = molecular target: HIV-1 6535.3 (Acute) Env on pseudovirus (HIV-1)
[26] = molecular target: HIV-1 93IN905 Env on pseudovirus (HIV-1)
[27] = molecular target: aMLV envelope
[28] = molecular target: HIV-1 MGRM-C-024 Env on pseudovirus (HIV-1)
[29] = molecular target: HIV-1 MGRM-AE-003 Env (HIV-1)
[30] = molecular target: HIV-1 MGRM-AG-006 Env (HIV-1)
[31] = molecular target: HIV-1 MGRM-C-008 Env on pseudovirus (HIV-1)
[32] = molecular target: HIV-1 MGRM-D-024 Env (HIV-1)
[33] = molecular target: HIV-1 MGRM-D-013 Env (HIV-1)
[34] = molecular target: HIV-1 92RW020 Env (HIV-1)
[35] = molecular target: HIV-1 MGRM-AE-006 Env (HIV-1)
[36] = molecular target: HIV-1 MGRM-G-016 Env (HIV-1)
[37] = molecular target: HIV-1 MGRM-D-012 Env (HIV-1)
[38] = molecular target: HIV-1 THR0.18 (Acute) Env on pseudovirus (HIV-1)
[39] = molecular target: HIV-1 MGRM-D-016 Env (HIV-1)
[40] = molecular target: HIV-1 MGRM-G-014 Env (HIV-1)
[41] = molecular target: HIV-1 MGRM-G-009 Env (HIV-1)
[42] = molecular target: HIV-1 IAVI-C3 Env (HIV-1)
[43] = molecular target: HIV-1 MGRM-C-019 Env on pseudovirus (HIV-1)
[44] = molecular target: HIV-1 92UG005 Env (HIV-1)
[45] = molecular target: HIV-1 APV-13 Env (HIV-1)
[46] = molecular target: HIV-1 MGRM-D-026 Env (HIV-1)
[47] = molecular target: HIV-1 MGRM-G-001 Env (HIV-1)
[48] = molecular target: aMLV envelope (negative control pseudovirus)
[49] = molecular target: HIV-1 MGRM-D-019 Env (HIV-1)
[50] = molecular target: HIV-1 MGRM-Chronic-B-018 Env on pseudovirus (HIV-1)
[51] = molecular target: HIV-1 MGRM-AE-005 Env (HIV-1)
[52] = molecular target: HIV-1 MGRM-G-028 Env (HIV-1)

## 4E10 (antibody)
[1]
  IC50 (µg/ml), pseudovirus neutralization: 13.3 µg/mL
[2]
  IC50: 2.48 µg/mL
[3]
  IC50: 1.46 µg/mL
[4]
  IC50 (µg/ml), pseudovirus neutralization: 1.07 µg/mL
[5]
  IC50 (pseudovirus neutralization): 2.74 µg/mL
[6]
  IC50 (µg/ml), pseudovirus neutralization: 0.91 µg/mL
[7]
  IC50 (µg/ml), pseudovirus neutralization: 1.19 µg/mL
[8]
  IC50: 0.44 µg/mL
[9]
  IC50: 10.5 µg/mL
[10]
  IC50: 48 µg/mL
[11]
  IC50: 1.91 µg/mL
[12]
  IC50: 1.69 µg/mL
[13]
  IC50 (µg/ml), pseudovirus neutralization: 0.85 µg/mL
[14]
  neutralization IC50: 1.55 µg/mL
  neutralization IC90: 12.8 µg/mL
[15]
  IC50 (µg/ml), pseudovirus neutralization: 31.4 µg/mL
[16]
  IC50: 2.02 µg/mL
[17]
  IC50: 1.07 µg/mL
[18]
  IC50: 0.53 µg/mL
[19]
  IC50 (µg/ml), pseudovirus neutralization: 0.45 µg/mL
[20]
  IC50 (µg/ml), pseudovirus neutralization: 1.44 µg/mL
[21]
  IC50 (µg/ml), pseudovirus neutralization: 1.48 µg/mL
[22]
  IC50 (pseudovirus neutralization): 3.6 µg/mL
[23]
  IC50: 2.46 µg/mL
[24]
  IC50 (µg/ml), pseudovirus neutralization: 1.23 µg/mL
[25]
  IC50: 1.23 µg/mL
[26]
  IC50: 1.26 µg/mL
[27]
  neutralization IC50: > 50 µg/mL
  neutralization IC90: > 50 µg/mL
[28]
  IC50: 22.6 µg/mL
[29]
  IC50 (µg/ml), pseudovirus neutralization: 0.34 µg/mL
[30]
  IC50 (µg/ml), pseudovirus neutralization: 1.76 µg/mL
[31]
  IC50: 2.97 µg/mL
[32]
  IC50 (µg/ml), pseudovirus neutralization: 3.6 µg/mL
[33]
  IC50 (µg/ml), pseudovirus neutralization: 5.38 µg/mL
[34]
  neutralization IC50: 3.38 µg/mL
  neutralization IC90: 36.1 µg/mL
[35]
  IC50 (µg/ml), pseudovirus neutralization: 0.23 µg/mL
[36]
  IC50 (µg/ml), pseudovirus neutralization: 1.02 µg/mL
[37]
  IC50 (µg/ml), pseudovirus neutralization: 1.13 µg/mL
[38]
  IC50: 4.68 µg/mL
[39]
  IC50 (µg/ml), pseudovirus neutralization: 15.4 µg/mL
[40]
  IC50 (µg/ml), pseudovirus neutralization: 13.7 µg/mL
[41]
  IC50 (µg/ml), pseudovirus neutralization: 1.34 µg/mL
[42]
  neutralization IC50: 5 µg/mL
[43]
  IC50: 3.49 µg/mL
[44]
  IC50 (µg/ml), pseudovirus neutralization: 7.46 µg/mL
  neutralization IC50: 8.86 µg/mL
  neutralization IC90: > 50 µg/mL
[45]
  neutralization IC50: 3.8 µg/mL
[46]
  IC50 (µg/ml), pseudovirus neutralization: 2.95 µg/mL
[47]
  IC50 (µg/ml), pseudovirus neutralization: 2.04 µg/mL
[48]
  IC50 (pseudovirus neutralization): > 50 µg/mL
[49]
  IC50 (µg/ml), pseudovirus neutralization: 0.04 µg/mL
[50]
  IC50: 23.2 µg/mL
[51]
  IC50 (µg/ml), pseudovirus neutralization: 0.47 µg/mL
[52]
  IC50 (µg/ml), pseudovirus neutralization: 6.32 µg/mL

## 2G12 (antibody)
[1]
  IC50 (µg/ml), pseudovirus neutralization: 23 µg/mL
[2]
  IC50: > 50 µg/mL
[3]
  IC50: 0.08 µg/mL
[4]
  IC50 (µg/ml), pseudovirus neutralization: > 50 µg/mL
[5]
  IC50 (pseudovirus neutralization): > 50 µg/mL
[6]
  IC50 (µg/ml), pseudovirus neutralization: 1.5 µg/mL
[7]
  IC50 (µg/ml), pseudovirus neutralization: > 50 µg/mL
[8]
  IC50: > 50 µg/mL
[9]
  IC50: > 50 µg/mL
[10]
  IC50: 0.22 µg/mL
[11]
  IC50: > 50 µg/mL
[12]
  IC50: 1.5 µg/mL
[13]
  IC50 (µg/ml), pseudovirus neutralization: > 50 µg/mL
[14]
  neutralization IC50: > 50 µg/mL
  neutralization IC90: > 50 µg/mL
[15]
  IC50 (µg/ml), pseudovirus neutralization: > 50 µg/mL
[16]
  IC50: > 50 µg/mL
[17]
  IC50: > 50 µg/mL
[18]
  IC50: > 50 µg/mL
[19]
  IC50 (µg/ml), pseudovirus neutralization: > 50 µg/mL
[20]
  IC50 (µg/ml), pseudovirus neutralization: > 50 µg/mL
[21]
  IC50 (µg/ml), pseudovirus neutralization: > 50 µg/mL
[22]
  IC50 (pseudovirus neutralization): > 50 µg/mL
[23]
  IC50: > 50 µg/mL
[24]
  IC50 (µg/ml), pseudovirus neutralization: > 50 µg/mL
[25]
  IC50: 3.85 µg/mL
[26]
  IC50: > 50 µg/mL
[27]
  neutralization IC50: > 50 µg/mL
  neutralization IC90: > 50 µg/mL
[28]
  IC50: > 50 µg/mL
[29]
  IC50 (µg/ml), pseudovirus neutralization: > 50 µg/mL
[30]
  IC50 (µg/ml), pseudovirus neutralization: 3.92 µg/mL
[31]
  IC50: > 50 µg/mL
[32]
  IC50 (µg/ml), pseudovirus neutralization: > 50 µg/mL
[33]
  IC50 (µg/ml), pseudovirus neutralization: > 50 µg/mL
[34]
  neutralization IC50: 0.56 µg/mL
  neutralization IC90: 6.23 µg/mL
[35]
  IC50 (µg/ml), pseudovirus neutralization: > 50 µg/mL
[36]
  IC50 (µg/ml), pseudovirus neutralization: > 50 µg/mL
[37]
  IC50 (µg/ml), pseudovirus neutralization: > 50 µg/mL
[38]
  IC50: > 50 µg/mL
[39]
  IC50 (µg/ml), pseudovirus neutralization: > 50 µg/mL
[40]
  IC50 (µg/ml), pseudovirus neutralization: > 50 µg/mL
[41]
  IC50 (µg/ml), pseudovirus neutralization: > 50 µg/mL
[42]
  neutralization IC50: > 50 µg/mL
  neutralization IC90: > 50 µg/mL
[43]
  IC50: > 50 µg/mL
[44]
  IC50 (µg/ml), pseudovirus neutralization: > 50 µg/mL
  neutralization IC50: > 50 µg/mL
  neutralization IC90: > 50 µg/mL
[45]
  neutralization IC50: 23.9 µg/mL
[46]
  IC50 (µg/ml), pseudovirus neutralization: > 50 µg/mL
[47]
  IC50 (µg/ml), pseudovirus neutralization: > 50 µg/mL
[48]
  IC50 (pseudovirus neutralization): > 50 µg/mL
[49]
  IC50 (µg/ml), pseudovirus neutralization: > 50 µg/mL
[50]
  IC50: > 50 µg/mL
[51]
  IC50 (µg/ml), pseudovirus neutralization: > 50 µg/mL
[52]
  IC50 (µg/ml), pseudovirus neutralization: 28.2 µg/mL
